The results in this text go back to patent publication US20030105292A1.

Test [1] concerns the target G protein Gi.
In test [2] the target is G protein Gi. This is another data set of the same source.
Test [3] addresses Gs protein.
The target of test [4] is Gs protein. This is another data set of the same source.

Consider endogenous human GPR30 (receptor), for which the luciferase, CRE-Luc reporter in 293 cells co-transfected with GPR6 at a 1:4 ratio (relative light units) with G protein Gi [1] stood at 104.

In the test with G protein Gq, “non-endogenous human ETBR-LP2 (N358K) (receptor)” displayed a luciferase, AP1 reporter assay in 293T cells; Per-Cent Difference of the non-endogenous against the endogenous GPCR of 61.1% and a luciferase, AP1 reporter assay in 293 cells; Per-Cent Difference of the non-endogenous against the endogenous GPCR of 48.4%. For “non-endogenous, constitutively activated GPR17 (V234K) (receptor)”, the luciferase, 8xCRE-Luc reporter in 293 cells co-transfected with GPR3; Per-Cent Difference of the non-endogenous against the endogenous GPCR with G protein Gi [2] turned out to be 74.5%.

Consider “endogenous, constitutively activated GPR6 (from UniProt P46095) (receptor)”, for which the luciferase, CRE-Luc reporter in 293 cells (relative light units) in the test with Gs protein [3] worked out at 104. In the test with G protein Gi [2], “non-endogenous, constitutively active GPR30 (L258K) (receptor)” came in with a luciferase, CRE-Luc reporter in 293 cells co-transfected with GPR6; Per-Cent Difference of the non-endogenous against the endogenous GPCR of 71.6%.

B1: non-endogenous human APJ (L247K) (receptor)
chain: MEEGGDFDNYYGADNQSECEYTDWKSSGALIPAIYMLVFLLGTTGNGLVLWTVFRSSREKRRSADIFIASLAVADLTFVVTLPLWATYTYRDYDWPFGTFFCKLSSYLIFVNMYASVFCLTGLSFDRYLAIVRPVANARLRLRVSGAVATAVLWVLAALLAMPVMVLRTTGDLENTTKVQCYMDYSMVATVSSEWAWEVGLGVSSTTVGFVVPFTIMLTCYFFIAQTIAGHFRKERIEGLRKRRRLKSIIVVLVVTFALCWMPYHLVKTLYMLGSLLHWPCDFDLFLMNIFPYCTCISYVNSCLNPFLYAFFDPRFRQACTSMLCCGQSRCAGTSHSSSGEKSASYSSGHSQGPGPNMGKGGEQMHEKSIPYSQETLVVD
B1 returned a [35S]GTPgammaS binding to membranes expressing the receptor; Per-Cent Difference of the non-endogenous against the endogenous GPCR in the test with G protein of 49%.

B2: non-endogenous human GHSR (V262K) (receptor)
chain: MWNATPSEEPGFNLTLADLDWDASPGNDSLGDELLQLFPAPLLAGVTATCVALFVVGIAGNLLTMLVVSRFRELRTTTNLYLSSMAFSDLLIFLCMPLDLVRLWQYRPWNFGDLLCKLFQFVSESCTYATVLTITALSVERYFAICFPLRAKVVVTKGRVKLVIFVIWAVAFCSAGPIFVLVGVEHENGTDPWDTNECRPTEFAVRSGLLTVMVWVSSIFFFLPVFCLTVLYSLIGRKLWRRRRGDAVVGASLRDQNHKQTKKMLAVVVFAFILCWLPFHVGRYLFSKSFEPGSLEIAQISQYCNLVSFVLFYLSAAINPILYNIMSKKYRVAVFRLLGFEPFSQRKLSTLKDESSRAWTESSINT
Turning to B2, in the test with Gs protein [4], the luciferase, CREB reporter assay in 293T cells; Per-Cent Difference of the non-endogenous against the endogenous GPCR came to 35.6% and the luciferase, CREB reporter assay in 293 cells; Per-Cent Difference of the non-endogenous against the endogenous GPCR amounted to 58.9%.
